Results: patent publication US12534501B2, “Targeting deregulated Wnt signaling in cancer using stabilized alpha-helices of BCL-9” (Dana-Farber Cancer Institute, Inc., priority 2011, dated 2026)

Assays:
[1] = test system: β-catenin/TCF interaction; details: Lepourcelet et al. 2004; cited from earlier work
colon cancer cells = details: Lepourcelet et al. 2004; cited from earlier work
[2] = Sukhdeo et al. 2007; cited from earlier work
IκBα and actin = test: Anti-FITC pulldown from MCF7 lysates (unrelated proteins); assay type: cell-based; details: MCF7 cells, selectivity
Excerpt: (§1) Western blotting, performed as described (Sukhdeo, K. et al. Proc Natl Acad Sci USA 104, 7516-21 (2007)), employed the following primary antibodies: BCL9 (6109) (Mani, M. et al. Cancer Res 69, 7577-86 (2009)), BCL9 (ab37305, Abcam), B9L (AF4967, R&D Systems), β-catenin (CAT5-H10, Zymed), FITC (ab19224, Abcam), Actin-HRP (C-11, Santa Cruz), Caspase3 (#9662, Cell Signaling), IκBα (#9242, Cell signaling), PARP (#9542, Cell Signaling), E-cadherin (#3195, Cell Signaling), and Lamin B (sc-6217, Santa Cruz). Horseradish peroxidase conjugated secondary antibodies were purchased from Santa Cruz and SouthernBiotech. Co-immunoprecipitation was performed as described (Walensky, L. D. et al. Science 305, 1466-70 (2004)). Briefly, cells were lysed in 50 mM Tris, 150 mM NaCl, and 1% CHAPS buffer containing protease and phosphatase inhibitors. Lysates were precleared with Protein A/G PLUS-agarose beads (Santa Cruz Biotechnologies) for 3 hours followed by overnight incubation at 4° C. with the respective antibodies. Agarose A/G beads were then added for 4 h, pelleted, and washed as described (Walensky, L. D. et al. Science 305, 1466-70 (2004)). See results in FIG. 1D, FIG. 1H, FIG. 2A, FIG. 8.

β-catenin = biological target: T1, β-catenin (Homo sapiens, UniProt P35222); test: Anti-FITC / anti-β-catenin co-immunoprecipitation from lysates of peptide-treated cells; assay type: cell-based; details: FITC and β-catenin immunoprecipitation, in situ
T1 construct: endogenous in cells; host or cells: Colo320
T1 sequence (P35222 1-781): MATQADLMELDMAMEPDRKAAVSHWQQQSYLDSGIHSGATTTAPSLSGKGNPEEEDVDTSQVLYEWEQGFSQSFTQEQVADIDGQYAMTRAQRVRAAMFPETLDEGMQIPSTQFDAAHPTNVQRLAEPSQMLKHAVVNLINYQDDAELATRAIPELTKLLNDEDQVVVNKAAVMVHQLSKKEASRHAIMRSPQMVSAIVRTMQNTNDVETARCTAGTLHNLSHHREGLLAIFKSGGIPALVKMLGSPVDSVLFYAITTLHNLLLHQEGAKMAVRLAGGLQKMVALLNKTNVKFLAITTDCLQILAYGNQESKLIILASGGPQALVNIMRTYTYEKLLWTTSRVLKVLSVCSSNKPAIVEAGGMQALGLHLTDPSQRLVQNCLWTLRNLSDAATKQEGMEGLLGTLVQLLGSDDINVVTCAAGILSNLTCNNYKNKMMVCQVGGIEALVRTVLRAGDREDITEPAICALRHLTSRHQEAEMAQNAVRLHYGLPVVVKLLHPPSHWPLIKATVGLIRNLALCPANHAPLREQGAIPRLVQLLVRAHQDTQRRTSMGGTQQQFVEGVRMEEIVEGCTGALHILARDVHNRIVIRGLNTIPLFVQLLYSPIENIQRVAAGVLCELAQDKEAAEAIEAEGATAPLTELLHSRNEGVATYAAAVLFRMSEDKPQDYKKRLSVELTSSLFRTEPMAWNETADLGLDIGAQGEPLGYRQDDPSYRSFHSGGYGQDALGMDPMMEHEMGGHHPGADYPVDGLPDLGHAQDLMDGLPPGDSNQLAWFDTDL
Excerpt: as §1

[3] = biological target: T2, β-catenin/E-cadherin interaction (Homo sapiens, UniProt P35222); test: Anti-β-catenin co-immunoprecipitation of E-cadherin from MCF7 cell lysates; assay type: cell-based; details: selectivity
T2 construct: anti-β-catenin co-immunoprecipitation of E-cadherin from MCF7 cell lysates; endogenous in cells; host or cells: MCF7
T2 sequence (P35222 2-781 limits assumed): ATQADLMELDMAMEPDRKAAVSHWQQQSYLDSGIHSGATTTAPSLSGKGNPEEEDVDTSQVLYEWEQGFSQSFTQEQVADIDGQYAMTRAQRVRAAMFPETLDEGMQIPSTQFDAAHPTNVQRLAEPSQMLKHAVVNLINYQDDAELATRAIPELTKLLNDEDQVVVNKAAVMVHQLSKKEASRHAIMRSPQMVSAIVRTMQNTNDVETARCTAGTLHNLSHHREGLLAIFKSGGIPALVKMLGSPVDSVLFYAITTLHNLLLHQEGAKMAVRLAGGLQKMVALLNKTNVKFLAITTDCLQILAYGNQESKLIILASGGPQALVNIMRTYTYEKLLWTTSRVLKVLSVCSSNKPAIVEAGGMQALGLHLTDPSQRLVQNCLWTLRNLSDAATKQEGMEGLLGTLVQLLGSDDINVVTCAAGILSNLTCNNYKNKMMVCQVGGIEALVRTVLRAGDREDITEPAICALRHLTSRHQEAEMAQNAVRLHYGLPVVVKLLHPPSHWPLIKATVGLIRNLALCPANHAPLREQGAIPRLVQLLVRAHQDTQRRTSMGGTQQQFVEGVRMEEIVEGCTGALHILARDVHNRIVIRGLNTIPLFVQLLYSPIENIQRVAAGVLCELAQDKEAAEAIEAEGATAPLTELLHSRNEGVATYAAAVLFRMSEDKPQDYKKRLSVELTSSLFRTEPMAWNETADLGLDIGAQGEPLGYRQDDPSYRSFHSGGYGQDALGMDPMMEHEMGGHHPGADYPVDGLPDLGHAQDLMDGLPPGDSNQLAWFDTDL
Excerpt: as §1

Colo320 cells = test: Cellular uptake of FITC-labelled peptides; assay type: cell-based; details: FITC derivatives
Description: (§2) For fluorescence microscopy evaluation, cells were prepared using a cytocentrifuge (Thermo Shandon) and fixed as previously described (Sukhdeo, K. et al. Proc Natl Acad Sci USA 104, 7516-21 (2007); Mani, M. et al. Cancer Res 69, 7577-86 (2009)). Anti-β-catenin and rhodamine-conjugated secondary antibodies (5 μg/ml; Southern Biotechnology) were employed. Images were obtained using a BioRad Radiance 2000 laser scanning confocal microscope. Cell permeability of SAH-BCL9B and SAH-BCL9B(R359E) were determined by fluorescence microscopy of cells treated with FITC-derivatives of the above described stapled peptides and also by blotting/fluorescence scan, performed as previously described (Pitter, K. et al Methods Enzymol, 446, (2008), 387-408; Walensky, L. D. et al. Science 305, 1466-70 (2004). See results in FIG. 1E, FIG. 7.

MM1S cells = test: Cellular uptake of FITC-labelled peptides; assay type: cell-based; details: FITC derivatives
Description: as §2

| Substance | Wnt-specific transcriptional activity [1] | growth of colon cancer cells (colon cancer cells) | toxicity in treated mice [2] | co-immunoprecipitation of unrelated proteins (IκBα, actin) (IκBα and actin) | β-catenin interaction by co-immunoprecipitation (β-catenin) | effect on β-catenin's interaction with E-cadherin [3] | cellular uptake (Colo320 cells) | temperature-dependent uptake (Colo320 cells) | cellular uptake (MM1S cells) |
| --- | --- | --- | --- | --- | --- | --- | --- | --- | --- |
| PKF115-584 | blocked Wnt-specific transcriptional activity | reduced the growth of colon cancer cells | severe bone marrow hypoplasia, anemia, and generalized wasting |  |  |  |  |  |  |
| FITC-SAH-BCL9B: FITC derivative (via β-Ala at the amino terminus) of SAH-BCL9B |  |  |  | no co-immunoprecipitation of unrelated proteins | dose-responsively co-immunoprecipitated with β-catenin | no effect | equivalent cellular uptake | equivalent temperature-dependent uptake | equivalent cellular uptake |
| SAH-BCL9B(H358D): SEQ ID NO: 6: LSQEQLEDRERSLXTLRXIQRBLF; reverse polarity point mutant of SAH-BCL9B |  |  |  |  | impaired β-catenin interaction |  | similar |  |  |
| FITC-SAH-BCL9B(R359E): FITC derivative of SAH-BCL9B(R359E) |  |  |  |  |  |  | equivalent cellular uptake | equivalent temperature-dependent uptake | equivalent cellular uptake |
